T1: hPot1p (Homo sapiens, UniProt Q9NUX5 SEQ:1-634)
T1 chain: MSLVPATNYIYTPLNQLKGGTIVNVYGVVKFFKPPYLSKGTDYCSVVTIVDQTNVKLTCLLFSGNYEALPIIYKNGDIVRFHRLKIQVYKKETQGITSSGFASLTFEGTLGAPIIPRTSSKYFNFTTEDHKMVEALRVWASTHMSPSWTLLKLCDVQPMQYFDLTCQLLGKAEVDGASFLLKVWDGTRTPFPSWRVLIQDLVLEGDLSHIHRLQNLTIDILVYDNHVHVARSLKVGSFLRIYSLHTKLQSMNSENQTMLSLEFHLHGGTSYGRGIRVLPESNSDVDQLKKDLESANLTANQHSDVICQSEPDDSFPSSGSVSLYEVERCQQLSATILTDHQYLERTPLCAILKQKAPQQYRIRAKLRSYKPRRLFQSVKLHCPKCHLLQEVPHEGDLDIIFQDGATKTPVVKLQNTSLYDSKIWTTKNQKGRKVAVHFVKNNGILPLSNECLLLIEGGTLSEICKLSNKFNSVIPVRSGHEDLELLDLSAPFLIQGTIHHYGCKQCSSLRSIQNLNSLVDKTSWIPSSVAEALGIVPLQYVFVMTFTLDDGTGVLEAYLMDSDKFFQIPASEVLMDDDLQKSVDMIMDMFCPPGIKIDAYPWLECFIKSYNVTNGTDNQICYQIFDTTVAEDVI

B1: PBoli177 (ssDNA)
DNA: TTAGGGTTAGGGTTAGGGTT
B2: human G-strand (TTAGGG)5 (PBoli179) (ssDNA)
DNA: TTAGGGTTAGGGTTAGGGTTAGGGTTAGGG
B3: PBoli178 (ssDNA)
DNA: GGTTAGGGTTAGGGTTAGGG

How the values were obtained:
[1] = biological target: T1, hPot1p; assay: listed as hPot1p-binding; conditions: tags: N-terminal His6 (pQE30), E. coli
[2] = biological target: T1, hPot1p; assay: EMSA; conditions as for SpPot1p; conditions: tags: N-terminal His6 (pQE30), E. coli

Binder | binding result [1] | binding result [2]
B1 | binds | 
B2 |  | binds
B3 | binds | 

Reference: patent US20040191820, “Protection-of telomere-1 (POT-1) protein and encoding polynucleotides” (The Regents of the University of Colorado, published 2004)
